Laboratory results from publication PMC6482197, “Inhibition of HtrA2 alleviated dextran sulfate sodium (DSS)-induced colitis by preventing necroptosis of intestinal epithelial cells” (Cell Death & Disease, 2019).

Molecular target: the molecule itself
Experiment: not stated; MLKL trimer formation in T/S-treated L929 cells, with or without UCF-101 (Supplementary Fig. 5)

B1: MLKL (natural protein, mouse (endogenous in L929), UniProt Q9D2Y4 1-472, looked up)
chain: MDKLGQIIKLGQLIYEQCEKMKYCRKQCQRLGNRVHGLLQPLQRLQAQGKKNLPDDITAALGRFDEVLKEANQQIEKFSKKSHIWKFVSVGNDKILFHEVNEKLRDVWEELLLLLQVYHWNTVSDVSQPASWQQEDRQDAEEDGNENMKVILMQLQISVEEINKTLKQCSLKPTQEIPQDLQIKEIPKEHLGPPWTKLKTSKMSTIYRGEYHRSPVTIKVFNNPQAESVGIVRFTFNDEIKTMKKFDSPNILRIFGICIDQTVKPPEFSIVMEYCELGTLRELLDREKDLTMSVRSLLVLRAARGLYRLHHSETLHRNISSSSFLVAGGYQVKLAGFELSKTQNSISRTAKSTKAERSSSTIYVSPERLKNPFCLYDIKAEIYSFGIVLWEIATGKIPFEGCDSKKIRELVAEDKKQEPVGQDCPELLREIINECRAHEPSQRPSVDGRSLSGRERILERLSAVEESTDKKV
notes: MLKL, endogenous in the mouse fibroblast line L929; The trimer is seen in the execution phase of necroptosis; also called mixed lineage kinase domain like pseudokinase; MLKL trimer; source: endogenous, L929 cells treated with TNF-α plus Smac mimetic (T/S)
  stoichiometry N: 3
